Experimental data from paper PMC6736755.

Target: H-2 I-A^d class II MHC molecule (mouse)
Test: radioligand binding

- IC50: 2 nM
Substance: OVA323–339 peptide (WT)
